{"source": "patent US20070105771A1", "about": "(Y S THERAPEUTICS, published 2007)", "binders": {"B1": {"name": "rhuMAb 411 (antibody, human IgG1, kappa, V domains shown)", "VH": "EVQLVESGAGVKQPGGTLRLTCTASGFSLTTYGVHWVRQAPGKGLEWVGVIWGDGRTDYDAAFMSRVTISKDTSKSTVYLQMNSLRAEDTAVYYCMRNRHDWFDYWGQGTTVTVSS", "VL": "DILLTQSPSSLSATPGERATITCRASQGIRNNLNWYQQKPGQAPRLLIYYSSNLQSGVPSRFSGSGSGTDFTLTISRLQPEDVAAYYCQQSIKLPFTFGSGTKVEIKR", "notes": "also called X411"}}, "experiment_in_all_cases": "peptide microarray", "key": {"[1]": {"target": "T1, human CD26-derived 13 mer peptide 25 (human)", "T1 peptide": "DEFGHSINDYSIS", "description": "(§1) The overnight incubation was followed by three washings with each of PBS buffer pH 7.5 and water. The microarrays were then scanned using ArrayWorx-Microarray Scanner.\n(§2) The SPOT recognition software package ArrayPro was used for data analysis. The mean of signal intensities from 3 identical subarrays on each microarray image was used for data evaluation."}, "[2]": {"target": "T2, human CD26-derived 13 mer peptide 113 (human)", "T2 peptide": "NTDSLSSVTNATS", "description": "as §1, §2"}, "[3]": {"target": "T3, human CD26-derived 13 mer peptide 66 (human)", "T3 peptide": "PNLPSYRITWTGK", "description": "as §1, §2"}, "[4]": {"target": "T4, human CD26-derived 13 mer peptide 33 (human)", "T4 peptide": "QFILLEYNYVKQW", "description": "as §1, §2"}, "[5]": {"target": "T5, human CD26-derived 13 mer peptide 32 (human)", "T5 peptide": "DGQFILLEYNYVK", "description": "as §1, §2"}, "[6]": {"target": "T6, human CD26-derived 13 mer peptide 19 (human)", "T6 peptide": "GNSSVFLENSTFD", "description": "as §1, §2"}, "[7]": {"target": "T7, human CD26-derived 13 mer peptide 12 (human)", "T7 peptide": "YKQENNILVFNAE", "description": "as §1, §2"}, "[8]": {"target": "T8, human CD26-derived 13 mer peptide 86 (human)", "T8 peptide": "PNGTFLAYAQFND", "description": "as §1, §2"}, "[9]": {"target": "T9, human CD26-derived 13 mer peptide 107 (human)", "T9 peptide": "GAVNPTVKFFVVN", "description": "as §1, §2"}, "[10]": {"target": "T10, human CD26-derived 13 mer peptide 34 (human)", "T10 peptide": "ILLEYNYVKQWRH", "description": "as §1, §2"}, "[11]": {"target": "T11, human CD26-derived 13 mer peptide 22 (human)", "T11 peptide": "LENSTFDEFGHSI", "description": "as §1, §2"}, "[12]": {"target": "T12, human CD26-derived 13 mer peptide 44 (human)", "T12 peptide": "IYDLNKRQLITEE", "description": "as §1, §2"}, "[13]": {"target": "T13, human CD26-derived 13 mer peptide 59 (human)", "T13 peptide": "LAYVWNNDIYVKI", "description": "as §1, §2"}, "[14]": {"target": "T14, human CD26-derived 13 mer peptide 82 (human)", "T14 peptide": "AYSALWWSPNGTF", "description": "as §1, §2"}, "[15]": {"target": "T15, human CD26-derived 13 mer peptide 100 (human)", "T15 peptide": "LQYPKTVRVPYPK", "description": "as §1, §2"}, "[16]": {"target": "T16, human CD26-derived 13 mer peptide 48 (human)", "T16 peptide": "LITEERIPNNTQW", "description": "as §1, §2"}, "[17]": {"target": "T17, human CD26-derived 13 mer peptide 102 (human)", "T17 peptide": "KTVRVPYPKAGAV", "description": "as §1, §2"}, "[18]": {"target": "T18, human CD26-derived 13 mer peptide 8 (human)", "T18 peptide": "WISDHEYLYKQEN", "description": "as §1, §2"}, "[19]": {"target": "T19, human CD26-derived 13 mer peptide 131 (human)", "T19 peptide": "QERISLQWLRRIQ", "description": "as §1, §2"}, "[20]": {"target": "T20, human CD26-derived 13 mer peptide 76 (human)", "T20 peptide": "ITDWVYEEEVFSA", "description": "as §1, §2"}, "[21]": {"target": "T21, human CD26-derived 13 mer peptide 39 (human)", "T21 peptide": "WRHSYTASYDIYD", "description": "as §1, §2"}, "[22]": {"target": "T22, human CD26-derived 13 mer peptide 110 (human)", "T22 peptide": "VKFFVVNTDSLSS", "description": "as §1, §2"}, "[23]": {"target": "T23, human CD26-derived 13 mer peptide 17 (human)", "T23 peptide": "NAEYGNSSVFLEN", "description": "as §1, §2"}, "[24]": {"target": "T24, human CD26-derived 13 mer peptide 133 (human)", "T24 peptide": "SLQWLRRIQNYSV", "description": "as §1, §2"}, "[25]": {"target": "T25, human CD26-derived 13 mer peptide 15 (human)", "T25 peptide": "ILVFNAEYGNSSV", "description": "as §1, §2"}, "[26]": {"target": "T26, human CD26-derived 13 mer peptide 38 (human)", "T26 peptide": "KQWRHSYTASYDI", "description": "as §1, §2"}, "[27]": {"target": "T27, human CD26-derived 13 mer peptide 127 (human)", "T27 peptide": "LCDVTWATQERIS", "description": "as §1, §2"}, "[28]": {"target": "T28, human CD26-derived 13 mer peptide 4 (human)", "T28 peptide": "RLKLYSLRWISDH", "description": "as §1, §2"}, "[29]": {"target": "T29, human CD26-derived 13 mer peptide 73 (human)", "T29 peptide": "DIIYNGITDWVYE", "description": "as §1, §2"}, "[30]": {"target": "T30, human CD26-derived 13 mer peptide 75 (human)", "T30 peptide": "NGITDWVYEEEVF", "description": "as §1, §2"}, "[31]": {"target": "T31, human CD26-derived 13 mer peptide 56 (human)", "T31 peptide": "SPVGHKLAYVWNN", "description": "as §1, §2"}, "[32]": {"target": "T32, human CD26-derived 13 mer peptide 60 (human)", "T32 peptide": "YVWNNDIYVKIEP", "description": "as §1, §2"}, "[33]": {"target": "T33, human CD26-derived 13 mer peptide 67 (human)", "T33 construct": "also called LPSYRITWTGKED", "T33 peptide": "LPSYRITWTGKED", "description": "as §1, §2"}, "[34]": {"target": "T34, human CD26-derived 13 mer peptide 109 (human)", "T34 peptide": "PTVKFFVVNTDSL", "description": "as §1, §2"}, "[35]": {"target": "T35, human CD26-derived 13 mer peptide 58 (human)", "T35 peptide": "HKLAYVWNNDIYV", "description": "as §1, §2"}, "[36]": {"target": "T36, human CD26-derived 13 mer peptide 41 (human)", "T36 peptide": "YTASYDIYDLNKR", "description": "as §1, §2"}, "[37]": {"target": "T37, human CD26-derived 13 mer peptide 132 (human)", "T37 peptide": "RISLQWLRRIQNY", "description": "as §1, §2"}, "[38]": {"target": "T38, human CD26-derived 13 mer peptide 55 (human)", "T38 peptide": "TWSPVGHKLAYVW", "description": "as §1, §2"}, "[39]": {"target": "T39, human CD26-derived 13 mer peptide 126 (human)", "T39 peptide": "HYLCDVTWATQER", "description": "as §1, §2"}, "[40]": {"target": "T40, human CD26-derived 13 mer peptide 119 (human)", "T40 peptide": "SIQITAPASMLIG", "description": "as §1, §2"}, "[41]": {"target": "T41, human CD26-derived 13 mer peptide 98 (human)", "T41 peptide": "SDESLQYPKTVRV", "description": "as §1, §2"}, "[42]": {"target": "T42, human CD26-derived 13 mer peptide 64 (human)", "T42 peptide": "VKIEPNLPSYRIT", "description": "as §1, §2"}}, "data": [{"binder": "B1", "values": [{"measurement": "Mean Signal Value", "setting": "[1]", "result": 0}, {"measurement": "Mean Signal Value", "setting": "[2]", "result": 0.0288}, {"measurement": "Mean Signal Value", "setting": "[3]", "result": 0.111}, {"measurement": "Mean Signal Value", "setting": "[4]", "result": 21.8}, {"measurement": "Mean Signal Value", "setting": "[5]", "result": 0.0192}, {"measurement": "Mean Signal Value", "setting": "[6]", "result": 0}, {"measurement": "Mean Signal Value", "setting": "[7]", "result": 0}, {"measurement": "Mean Signal Value", "setting": "[8]", "result": 0.524}, {"measurement": "Mean Signal Value", "setting": "[9]", "result": 10.6}, {"measurement": "Mean Signal Value", "setting": "[10]", "result": 15.7}, {"measurement": "Mean Signal Value", "setting": "[11]", "result": 0.0192}, {"measurement": "Mean Signal Value", "setting": "[12]", "result": 0}, {"measurement": "Mean Signal Value", "setting": "[13]", "result": 0.683}, {"measurement": "Mean Signal Value", "setting": "[14]", "result": 67.8}, {"measurement": "Mean Signal Value", "setting": "[15]", "result": 0.00962}, {"measurement": "Mean Signal Value", "setting": "[16]", "result": 12.1}, {"measurement": "Mean Signal Value", "setting": "[17]", "result": 0.0192}, {"measurement": "Mean Signal Value", "setting": "[18]", "result": 0.736}, {"measurement": "Mean Signal Value", "setting": "[19]", "result": 5.25}, {"measurement": "Mean Signal Value", "setting": "[20]", "result": 0.0337}, {"measurement": "Mean Signal Value", "setting": "[21]", "result": 55.7}, {"measurement": "Mean Signal Value", "setting": "[22]", "result": 0.024}, {"measurement": "Mean Signal Value", "setting": "[23]", "result": 0.0625}, {"measurement": "Mean Signal Value", "setting": "[24]", "result": 6.51}, {"measurement": "Mean Signal Value", "setting": "[25]", "result": 0}, {"measurement": "Mean Signal Value", "setting": "[26]", "result": 4.77}, {"measurement": "Mean Signal Value", "setting": "[27]", "result": 0.00962}, {"measurement": "Mean Signal Value", "setting": "[28]", "result": 51.3}, {"measurement": "Mean Signal Value", "setting": "[29]", "result": 33.6}, {"measurement": "Mean Signal Value", "setting": "[30]", "result": 9.38}, {"measurement": "Mean Signal Value", "setting": "[31]", "result": 11.7}, {"measurement": "Mean Signal Value", "setting": "[32]", "result": 0.0769}, {"measurement": "Mean Signal Value", "setting": "[33]", "result": 0.00962}, {"measurement": "Mean Signal Value", "setting": "[34]", "result": 0}, {"measurement": "Mean Signal Value", "setting": "[35]", "result": 33.8}, {"measurement": "Mean Signal Value", "setting": "[36]", "result": 0.0673}, {"measurement": "Mean Signal Value", "setting": "[37]", "result": 113}, {"measurement": "Mean Signal Value", "setting": "[38]", "result": 124}, {"measurement": "Mean Signal Value", "setting": "[39]", "result": 0.0337}, {"measurement": "Mean Signal Value", "setting": "[40]", "result": 0.024}, {"measurement": "Mean Signal Value", "setting": "[41]", "result": 0.00481}, {"measurement": "Mean Signal Value", "setting": "[42]", "result": 0.438}]}]}
